From article PMC5986797, “Laminin heparin-binding peptides bind to several growth factors and enhance diabetic wound healing” (Nature Communications, 2018)

B1: LAMA3_2928–3150: recombinant human LAMA3 LG domain Ser2928-Cys3150 (linker domain and LG4 domain), 6 His, HEK-293F (protein)
chain: SLNKPPFLMLLKGSTRFNKTKTFRINQLLQDTPVASPRSVKVWQDACSPLPKTQANHGALQFGDIPTSHLLFKLPQELLKPRSQFAVDMQTTSSRGLVFHTGTKNSFMALYLSKGRLVFALGTDGKKLRIKSKEKCNDGKWHTVVFGHDGEKGRLVVDGLRAREGSLPGNSTISIRAPVYLGSPPSGKPKSLPTNSFVGCLKNFQLDSKPLYTPSSSFGVSSC
modifications: left off: His6, N-terminal, state not stated
notes: recombinant human LAMA3 LG domain Ser2928-Cys3150 (linker domain and LG4 domain), 6 His, HEK-293F
B2: LAMA4_826–1816: laminin alpha 4 LG domain recombinant protein (R&D Systems) (protein)
chain: RSVASKIQVSMMFDGQSAVEVHSRTSMDDLKAFTSLSLYMKPPVKRPELTETADQFILYLGSKNAKKEYMGLAIKNDNLVYVYNLGTKDVEIPLDSKPVSSWPAYFSIVKIERVGKHGKVFLTVPSLSSTAEEKFIKKGEFSGDDSLLDLDPEDTVFYVGGVPSNFKLPTSLNLPGFVGCLELATLNNDVISLYNFKHIYNMDPSTSVPCARDKLAFTQSRAASYFFDGSGYAVVRDITRRGKFGQVTRFDIEVRTPADNGLILLMVNGSMFFRLEMRNGYLHVFYDFGFSGGPVHLEDTLKKAQINDAKYHEISIIYHNDKKMILVVDRRHVKSMDNEKMKIPFTDIYIGGAPPEILQSRALRAHLPLDINFRGCMKGFQFQKKDFNLLEQTETLGVGYGCPEDSLISRRAYFNGQSFIASIQKISFFDGFEGGFNFRTLQPNGLLFYYASGSDVFSISLDNGTVIMDVKGIKVQSVDKQYNDGLSHFVISSVSPTRYELIVDKSRVGSKNPTKGKIEQTQASEKKFYFGGSPISAQYANFTGCISNAYFTRVDRDVEVEDFQRYTEKVHTSLYECPIESSPLFLLHKKGKNLSKPKASQNKKGGKSKDAPSWDPVALKLPERNTPRNSHCHLSNSPRAIEHAYQYGGTANSRQEFEHLKGDFGAKSQFSIRLRTRSSHGMIFYVSDQEENDFMTLFLAHGRLVYMFNVGHKKLKIRSQEKYNDGLWHDVIFIRERSSGRLVIDGLRVLEESLPPTEATWKIKGPIYLGGVAPGKAVKNVQINSIYSFSGCLSNLQLNGASITSASQTFSVTPCFEGPMETGTYFSTEGGYVVLDESFNIGLKFEIAFEVRPRSSSGTLVHGHSVNGEYLNVHMKNGQVIVKVNNGIRDFSTSVTPKQSLCDGRWHRITVIRDSNVVQLDVDSEVNHVVGPLNPKPIDHREPVFVGGVPESLLTPRLAPSKPFTGCIRHFVIDGHPVSFSKAALVSGAVS
B3: BDNF: brain-derived neurotrophic factor, PeproTech (protein, UniProt P23560 19-247, looked up)
Neurotrophic factor BDNF …: APMKEANIRGQGGLAYPGVRTHGTLESVNGPKAGSRGLTSLADTFEHVIEELLDEDQKVRPNEENNKDADLYTSRVMLSSQVPLEPPLLFLLEEYKNYLDAANMSMRVRRHSDPARRGELSVCDSISEWVTAADKKTAVDMSGGTVTVLEKVPVSKGQLKQYFYETKCNPMGYTKEGCRGIDKRHWNSQCRTTQSYVRALTMDSKKRIGWRFIRIDTSCVCTLTIKRGR
B4: FGF-10: fibroblast growth factor, PeproTech (protein)
chain: QALGQDMVSPEATNSSSSSFSSPSSAGRHVRSYNHLQGDVRWRKLFSFTKYFLKIEKNGKVSGTKKENCPYSILEITSVEIGVVAVKAINSNYYLAMNKKGKLYGSKEFNNDCKLKERIEENGYNTYASFNWQHNGRQMYVALNGKGAPRRGQKTRRKNTSAHFLPMVVHS
B5: BMP-7: bone morphogenetic protein, PeproTech, produced in eukaryotic cells (protein)
chain: STGSKQRSQNRSKTPKNQEALRMANVAENSSSDQRQACKKHELYVSFRDLGWQDWIIAPEGYAAYYCEGECAFPLNSYMNATNHAIVQTLVHFINPETVPKPCCAPTQLNAISVLYFDDSSNVILKKYRNMVVRACGCH
B6: PDGF-CC: platelet-derived growth factor, PeproTech (protein)
chain: VVDLNLLTEEVRLYSCTPRNFSVSIREELKRTDTIFWPGCLLVKRCGGNCACCLHNCNECQCVPSKVTKKYHEVLQLRPKTGVRGLHKSLTDVALEHHEECDCVCRGSTGG
B7: FGF-7: fibroblast growth factor, PeproTech (protein)
chain: CNDMTPEQMATNVNCSSPERHTRSYDYMEGGDIRVRRLFCRTQWYLRIDKRGKVKGTQEMKNNYNIMEIRTVAVGIVAIKGVESEFYLAMNKEGKLYAKKECNEDCNFKELILENHYNTYASAKWTHNGGEMFVALNQKGIPVRGKKTKKEQKTAHFLPMAIT
B8: FGF-6: fibroblast growth factor, PeproTech (protein)
chain: SPAGTRANNTLLDSRGWGTLLSRSRAGLAGEIAGVNWESGYLVGIKRQRRLYCNVGIGFHLQVLPDGRISGTHEENPYSLLEISTVERGVVSLFGVRSALFVAMNSKGRLYATPSFQEECKFRETLLPNNYNAYESDLYQGTYIALSKYGRVKRGSKVSPIMTVTHFLPRI
B9: PlGF-1: placental growth factor, PeproTech (protein)
chain: LPAVPPQQWALSAGNGSSEVEVVPFQEVWGRSYCRALERLVDVVSEYPSEVEHMFSPSCVSLLRCTGCCGDENLHCVPVETANVTMQLLKIRSGDRPSYVELTFSQHVRCECRPLREKMKPERCGDAVPRR
B10: BMP-3: bone morphogenetic protein, PeproTech (protein)
chain: QWIEPRNCARRYLKVDFADIGWSEWIISPKSFDAYYCSGACQFPMPKSLKPSNHATIQSIVRAVGVVPGIPEPCCVPEKMSSLSILFFDENKNVVLKVYPNMTVESCACR
B11: PlGF-2: placental growth factor (PlGF)-2, PeproTech (protein)
chain: LPAVPPQQWALSAGNGSSEVEVVPFQEVWGRSYCRALERLVDVVSEYPSEVEHMFSPSCVSLLRCTGCCGDENLHCVPVETANVTMQLLKIRSGDRPSYVELTFSQHVRCECRPLREKMKPERRRPKGRGKRRREKQRPTDCHLCGDAVPRR

Test system: PlGF-1
Assay: ELISA: PlGF-1 binding to laminin LG domain / laminin peptide
Design: species or system human
Conditions: 1 µg/mL LG domain coated; 1 μg/mL GF; vs BSA-coated wells; n = 4
Description: (§1) ELISA tests were performed as described above. In brief, ELISA plates were coated with 1 μg/mL of laminin alpha 3 LG domain recombinant protein, laminin alpha 4 LG domain recombinant protein (R&D Systems), laminin alpha 5 LG domain recombinant protein (LD BioPharma), or laminin peptide (sequences are described in Supplementary Table 1, chemically synthesized by Genscript) in PBS for 2 h at 37 °C. A concentration of 1 μg/mL of BSA served as non-binding protein control. After blocking with 2% BSA PBS-0.05% Tween 20 (PBS-T) solution, 1 μg/mL of the recombinant human proteins (VEGF-A121, VEGF-A165, PlGF-1, PlGF-2, PDGF-BB, or FGF-2) or 10 μg/mL of biotinylated heparin (Sigma-Aldrich) were added. Bound GF was detected with biotinylated antibodies for human VEGF-A, PlGF, PDGF-BB (R&D Systems, Catalog No. DY220, 1:180 dilution), or FGF-2 (R&D Systems). The antibodies were detected by streptavidin-HRP (R&D Systems).

Row | binding to PlGF-1 (ELISA), recombinant LG domains | Molecule
1 | did not show any binding | B1
2 | did not show any binding | B2

Test system: FGF-2
Assay: ELISA: FGF-2 binding to laminin LG domain / laminin peptide
Design: species or system human
Conditions: 1 µg/mL LG domain coated; 1 μg/mL GF; vs BSA-coated wells; n = 4
Description: as §1

Row | binding to FGF-2 (ELISA), recombinant LG domains | Molecule
3 | bound | B1
4 | bound | B2

Test system: PlGF-2
Assay: ELISA: PlGF-2 binding to laminin LG domain / laminin peptide
Design: species or system human
Conditions: 1 µg/mL LG domain coated; 1 μg/mL GF; vs BSA-coated wells; n = 4
Description: as §1

Row | binding to PlGF-2 (ELISA), recombinant LG domains | Molecule
5 | bound | B1
6 | bound | B2

Test system: VEGF-A165
Assay: ELISA: VEGF-A165 binding to laminin LG domain / laminin peptide
Design: species or system human
Conditions: 1 µg/mL LG domain coated; 1 μg/mL GF; vs BSA-coated wells; n = 4
Description: as §1, with “ELISA plates were coated with 1 μg/mL of laminin alpha 3 LG domain” left out

Row | binding to VEGF-A165 (ELISA), recombinant LG domains | Molecule
7 | bound | B1
8 | bound | B2

Test system: PDGF-BB
Assay: ELISA: PDGF-BB binding to laminin LG domain / laminin peptide
Design: species or system human
Conditions: 1 µg/mL LG domain coated; 1 μg/mL GF; vs BSA-coated wells; n = 4
Description: as §1

Row | binding to PDGF-BB (ELISA), recombinant LG domains | Molecule
9 | bound | B1
10 | bound | B2

Test system: VEGF-A121
Assay: ELISA: VEGF-A121 binding to laminin LG domain / laminin peptide
Design: species or system human
Conditions: 1 µg/mL LG domain coated; 1 μg/mL GF; vs BSA-coated wells; n = 4
Description: as §1

Row | binding to VEGF-A121 (ELISA), recombinant LG domains | Molecule
11 | did not show any binding | B1
12 | did not show any binding | B2

Test system: recombinant human laminin isoforms (–111, –211, –332, –411, –421, –511, and –521)
Assay: ELISA: binding of full-length laminin isoforms to absorbed GFs and CXCL chemokines
Conditions: 50 nM GF coated, 10 nM laminin; signals greater than 0.1 indicate binding; n = 4
Description: Ninety-six-well ELISA plates (med-binding, Greiner Bio-One) were coated with 50 nM GFs in 100 µL/well of phosphate-buffered saline (PBS) at 37 °C for more than 2 h. After blocking with 2% BSA solution containing PBS and 0.05% Tween 20 (PBS-T), 10 nM recombinant human laminin isoforms (–111, –211, –332, –411, –421, –511, and –521) (>95% purity tested by SDS-PAGE, BioLamina) in 100 µL/well PBS were added. Bound laminin was detected with 100 µL/well rabbit anti-human LAMC1 polyclonal antibody (Assay Biotech, Catalog No. C13072, 1:1000 dilution in PBS) or rabbit anti-human LAMA3 polyclonal antibody (Assay Biotech, Catalog No. C13066, 1:1000 dilution in PBS). After incubation with biotinylated anti-rabbit antibody for 60 min at room temperature (RT), HRP-conjugated streptavidin (Jackson ImmunoResearch) was added. After 60 min of incubation at RT, 50 μL of TMB substrate (Sigma-Aldrich) was added. The reactions were stopped by adding 25 μL of 2 N H2SO4. Subsequently, the absorbance at 450 nm was measured with a reference of 570 nm.

Row | binding to all tested laminin isoforms (ELISA, A450 nm) | Molecule
13 | strong binding | B3
14 | bound | B4
15 | not | B5
16 | bound | B6
17 | bound | B7
18 | did not | B8
19 | did not show binding | B9
20 | showed binding | B10
21 | bound | B11
